Laboratory results from patent publication US9119839B2, “Cancer treatment” (Pfizer Inc., priority 2009, dated 2015).

Legend:
[1] = system: previously-untreated, unresectable melanoma; test: Clinical trial A3671009, randomized multicenter Phase 3 study of tremelimumab versus chemotherapy: overall survival by baseline serum CRP category; type: in vivo, human; details: for Median OS: tremelimumab 15 mg/kg i.v. every 90 days (Arm A) or dacarbazine/temozolomide (Arm B); for HR (hazard ratio for survival for the two treatment arms): CTLA4 blockade versus chemotherapy
Procedure: Patients randomized to Arm A received intravenous tremelimumab at a dose of 15 mg/kg every 90 days for up to four doses. Patients randomized to Arm B received either dacarbazine at 1000 mg/m^2 or temozolomide at 200 mg/m^2 at the discretion of the investigator. The primary objective of the trial was to compare overall survival of patients in the two treatment arms. Objective tumor response was a secondary endpoint. In the A3671009 trial, serum CRP was measured in most patients before initiation of treatment. In the analysis described below, baseline CRP refers to the result of a CRP assay performed on serum drawn from patients up to 14 days prior randomization into the study. […] The hazard ratio of 1.48 represents a 48% improvement in overall survival in favor of patients who received CTLA4 blockade.

CRP = details: treatment with IL-6 / IL-6 receptor inhibitor; cited from earlier work
[2] = patients with baseline CRP > 1.5 ULN
[3] = patients with baseline CRP ≦ 1.5 ULN

dacarbazine or temozolomide [Chemotherapy, reference compound]
Median OS [1, 2]: 6.1 months
Median OS [1, 3]: 12.7 months

tocilizumab
effect on CRP levels (CRP): reduce CRP levels

B1: tremelimumab (antibody, listed as Homo sapiens)
VH: GVVQPGRSLRLSCAASGFTFSSYGMHWVRQAPGKGLEWVAVIWYDGSNKYYADSVKGRFTISRDNSKNTLYLQMNSLRAEDTAVYYCARDPRGATLYYYYYGMDVWGQGTTVTVSSASTKGPSVFPLAPCSRSTSESTAALGCLVKDYFPEPVTVSWNSGALTSGVH
VL: PSSLSASVGDRVTITCRASQSINSYLDWYQQKPGKAPKLLIYAASSLQSGVPSRFSGSGSGTDFTLTISSLQPEDFATYYCQQYYSTPFTFGPGTKVEIKRTVAAPSVFIFPPSDEQLKSGTASVVCLLNNFYPREAKV
notes: anti-CTLA4 monoclonal IgG2 antibody 11.2.1; Arm A of trial A3671009
HR (hazard ratio for survival for the two treatment arms) ([1]; baseline CRP > 1.5 ULN, P-value 0.3076): 0.86
HR (hazard ratio for survival for the two treatment arms) ([1]; baseline CRP ≦ 1.5 ULN, P-value 0.0037): 1.48
improvement in overall survival ([1]; low baseline CRP, in favor of CTLA4 blockade versus chemotherapy): 48%
Median OS [1, 2]: 6.1 months
Median OS [1, 3]: 19.1 months
difference in overall survival between treatment groups ([1]; patients with high baseline CRP, versus chemotherapy (FIG. 2)): no apparent difference
difference in overall survival between treatment groups ([1]; patients with low baseline CRP, versus chemotherapy (FIG. 1)): clinically meaningful and statistically significant difference
